Reference: patent publication US20100146651, “MEGANUCLEASE VARIANTS CLEAVING A DNA TARGET SEQUENCE FROM THE HPRT GENE AND USES THEREOF” (CELLECTIS, published 2010)

Columns and labels:
Experiment in all cases: cell_activity; CHO chromosomal reporter, maximum
[1] = target: T1, HprCH3.3 G19S/HprCH3.4 heterodimer (synthetic, UniProt P05725;P05725 SEQ:1-163,SEQ:1-163, G19S in first chain)
T1 sequence 1: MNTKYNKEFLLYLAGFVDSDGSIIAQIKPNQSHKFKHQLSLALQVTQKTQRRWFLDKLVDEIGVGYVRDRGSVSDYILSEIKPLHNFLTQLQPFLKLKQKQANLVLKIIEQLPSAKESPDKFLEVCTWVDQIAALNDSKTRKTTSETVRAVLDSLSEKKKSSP
T1 sequence 2: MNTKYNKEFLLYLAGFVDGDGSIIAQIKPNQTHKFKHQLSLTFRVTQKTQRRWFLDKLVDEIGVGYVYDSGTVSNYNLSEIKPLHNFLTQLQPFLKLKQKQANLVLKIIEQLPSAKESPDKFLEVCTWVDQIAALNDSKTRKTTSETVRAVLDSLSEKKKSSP
From the text: (§1) To evaluate the cleavage activity of the original and G19S derived mutants a chromosomal reporter system in CHO cells was used (FIG. 20). In this system a single-copy LacZ gene driven by the CMV promoter is interrupted by the HprCH3 site and is thus non-functional. The transfection of the cell line with CHO expression plasmids for HprCH3.3/HprCH3.4 and a LacZ repair plasmid allows the restoration of a functional LacZ gene by homologous recombination. It has previously been shown that double-strand breaks can induce homologous recombination; therefore the frequency with which the LacZ gene is repaired is indicative of the cleavage efficiency of the genomic HprCH3 target site.
(§2) CHO cell lines harbouring the reporter system were seeded at a density of 2×10⁵ cells per 10 cm dish in complete medium (Kaighn's modified F-12 medium (F12-K), supplemented with 2 mM L-glutamine, penicillin (100 UI/ml), streptomycin (100 μg/ml), amphotericin B (Fongizone) (0.25 μg/ml) (INVITROGEN-LIFE SCIENCE) and 10% FBS (SIGMA-ALDRICH CHIMIE). The next day, cells were transfected with Polyfect transfection reagent (QIAGEN). Briefly, 2 μg of lacz repair matrix vector was co-transfected with various amounts of meganucleases expression vectors. After 72 hours of incubation at 37° C., cells were fixed in 0.5% glutaraldehyde at 4° C. for 10 min, washed twice in 100 mM phosphate buffer with 0.02% NP40 and stained with the following staining buffer (10 mM Phosphate buffer, 1 mM MgCl₂, 33 mM K hexacyanoferrate (III), 33 mM K hexacyanoferrate (II), 0.1% (v/v) X-Gal). After, an overnight incubation at 37° C., plates were examined under a light microscope and the number of LacZ positive cell clones counted. The frequency of LacZ repair is expressed as the number of LacZ+ foci divided by the number of transfected cells (5×10⁵) and corrected by the transfection efficiency.

[2] = target: T2, HprCH3.3/HprCH3.4 heterodimer (KNSHQS/QRRDI/42A43L + KNTHQS/RYSNN/72T) (synthetic, UniProt P05725;P05725 SEQ:1-163,SEQ:1-163)
T2 chain 1: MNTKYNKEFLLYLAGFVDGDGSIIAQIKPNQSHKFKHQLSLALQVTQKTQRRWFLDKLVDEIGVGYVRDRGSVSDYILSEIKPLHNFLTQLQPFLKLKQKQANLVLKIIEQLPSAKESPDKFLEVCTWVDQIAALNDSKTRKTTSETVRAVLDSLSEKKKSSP
T2 chain 2: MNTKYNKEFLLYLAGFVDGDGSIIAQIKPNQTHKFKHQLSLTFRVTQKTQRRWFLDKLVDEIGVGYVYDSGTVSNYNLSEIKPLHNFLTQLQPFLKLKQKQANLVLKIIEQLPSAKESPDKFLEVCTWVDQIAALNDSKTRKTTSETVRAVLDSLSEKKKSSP
From the text: as §1, §2

[3] = target: T3, HprCH3.3/HprCH3.4 G19S heterodimer (synthetic, UniProt P05725;P05725 SEQ:1-163,SEQ:1-163, G19S in second chain)
T3 sequence 1: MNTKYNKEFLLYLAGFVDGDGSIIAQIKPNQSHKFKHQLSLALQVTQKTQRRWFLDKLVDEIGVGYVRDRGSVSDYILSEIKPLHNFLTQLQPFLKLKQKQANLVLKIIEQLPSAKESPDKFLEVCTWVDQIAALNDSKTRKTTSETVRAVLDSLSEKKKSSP
T3 sequence 2: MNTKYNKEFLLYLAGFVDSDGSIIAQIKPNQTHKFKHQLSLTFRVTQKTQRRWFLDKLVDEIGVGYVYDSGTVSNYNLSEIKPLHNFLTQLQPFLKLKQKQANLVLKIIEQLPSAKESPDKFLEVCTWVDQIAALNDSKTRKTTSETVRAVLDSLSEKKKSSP
From the text: as §1, §2

B1: HprCH3 (dsDNA)
DNA 1: CGAGATGTCATGAAAGAGATGG
DNA 2: CCATCTCTTTCATGACATCTCG
B1 was tested, and the activity [1] was 0.0115 LacZ repair frequency, the activity [2] was 0.002 LacZ repair frequency and the activity [3] was 0.012 LacZ repair frequency.
